Experiment: yeast display, Sf9 membrane polyspecificity reagent, FACS + sequencing; frameworks hold sequencing errors
In short: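 Using colony PCR, genes from sorted yeast display clones were amplified, then sequenced on MiSeq at 2 × 250 and filtered by CDR length. The clones had been stained with 10% biotinylated, detergent-solubilized Sf9 membrane reagent for 1 hour at 4 °C and sorted by FACS into low and high (top ~1%) gates on anti-HA and streptavidin fluorescence. Polyreactivity labels come from the gate of origin.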

QVQLVESGGGLVQAGGSLRLSCAASGSTFYRNAMGWYRQAPGKEREFVAAITTDDSTYYADSVKGRFTISRDNAKNTVYVQMNSLKPEDTAVYYCAAGLEGKATWAAVGGYDYWGQGTQVTVSS
polyreactivity (PSR sort gate): low polyreactivity

QVQLVESGGGLVQAGGSLRLSCAASGSTFYRNAMGWYRQAPGKERELVAAISRDGSTYYADSVKGRFTISRDNAKNTVYLQMNSLKPEDTAVYSCAKAGVTNGVVVDSVYAYDYWGQGTQVTVSS
polyreactivity (PSR sort gate): low polyreactivity

QVQLVESGGGLVQAGGSLRLSCAASGSTFYRNAMGWYRQAPGKERELVAAITSRGTRTFYADSVKGRFTISRDNAKNTVYLQMNSLKPEDTAVYYCAVTYQAEDEYDYWGQGTQVTVSS
polyreactivity (PSR sort gate): low polyreactivity

QVQLVESGGGLVQAGGSLRLSCAASGSTFYRNAMGWYRQAPGKERELVATISTGGVSTYYADSVKGRFTISRDNAKNTVYLQMNSLKPEDTAVYYCAKRTVYLSNLDYWGQGTQVTLSS
polyreactivity (PSR sort gate): low polyreactivity

QVQLVESGGGLVQAGGSLRLSCAASGSTFYRNAMGWYRQARGKERELVAAISRGGSTYYADSVKGRFTISRDNAKNTVYLQMNSLKPEDTAVYYCNTDVNYAGYGWYYYWGQGTQVTVSS
polyreactivity (PSR sort gate): high polyreactivity

QVQLVESGGGLVQAGGSLRLSCAASGSTFYRNVMGWYRQAPGKERELVAAISASGGSTYYADSVKGRFTISRDNAKNTVYLQMNSLKPEVTAVYYCAVDNRQYRYLYYYWGQGSQVTVSS
polyreactivity (PSR sort gate): high polyreactivity

QVQLVESGGGLVQAGGSLRLSCAASGSTFYRYALGWYRQAPGKEREFVAAISRSGGSTNYADSVKGRFTISRDNAKNTVYLQMNSMKPEDTAVYYCAAKYSDYQYGRYYYWGQGTQVTVSS
polyreactivity (PSR sort gate): high polyreactivity

QVQLVESGGGLVQAGGSLRLSCAASGSTFYRYAMGWYRQAPGKERELVAAISKRGGSTYYADSVKGRFTISRDNAKNTVYLQMNSLKPEDTAVYYCNAVGYKGTTYDYWGQGTQVTVSS
polyreactivity (PSR sort gate): high polyreactivity

QVQLVESGGGLVQAGGSLRLSCAASGSTFYRYAMGWYRQAPGKERELVARIDWSDGSTNYADSVKGRFTISRDNAKNTVYLQMNSLKPEDTAVYYCAADTYSDTYDGEYEYWGQGTQVTVSS
polyreactivity (PSR sort gate): low polyreactivity

QVQLVESGGGLVQAGGSLRLSCAASGSTFYRYAMGWYRQAPGNERELVAVLRYTSGRTYYADSVKGRFTISRDNAKYTVYLQMNSLKREDTAVYYCATDPYGTRGTDSRYNYWGQGIQVTVSS
polyreactivity (PSR sort gate): high polyreactivity

QVQLVESGGGLVQAGGSLRLSCAASGSTFYSNAMGCYRQAPGKEREFVAAITGGDVRTYYADSVKGRFTISRDNAKNTVYLPMNSLKPEDTAVYFCATGPYIWPEWSPGFDYWGQGTQVTVSS
polyreactivity (PSR sort gate): low polyreactivity

QVQLVESGGGLVQAGGSLRLSCAASGSTFYSYAMGWYRPAPGKERELVAAITTSGGSTYYADSVKGRFTISRDNAKNTVYLQMNSLKPEDTAVYYCNAYFIYEGGWYYKAQYDYWGQGTQVTVSS
polyreactivity (PSR sort gate): low polyreactivity

QVQLVESGGGLVQAGGSLRLSCAASGSTFYSYAMGWYRQAPGKEREFVAVISWSGGRTRYADSVKGRFTISRDNAKNTVYLQMKSVKPEDTAVYYCNARKWGYSPHRKGDRHFEYWGQGTQVTVSS
polyreactivity (PSR sort gate): low polyreactivity

QVQLVESGGGLVQAGGSLRLSCAASGSTFYSYAMGWYRQAPGKERELVAAISSGGSTYYADSVKGRFTISRDNAKNTGYLQMNSLKPEDTAVYYCAAKRRAKTGYRYDYWGQGTQVTVSS
polyreactivity (PSR sort gate): high polyreactivity

QVQLVESGGGLVQAGGSLRLSCAASGSTFYSYAMGWYRQAPGKERELVAAITRGGSTYYADSVKGRFTISRDNAKNTVYLQMNSLKPEDTAVYYCAARPWTSASYDYWGQGTQVTVSS
polyreactivity (PSR sort gate): low polyreactivity

QVQLVESGGGLVQAGGSLRLSCAASGSTFYSYAMGWYRQAPGKERELVAAITTSGVSTYYADSVKGRFTISRDNAKNTVYLQMNSLKPEDTAVYYCNAYFIYEGGWYYKAQYDYWGQGTQVTVSS
polyreactivity (PSR sort gate): low polyreactivity

QVQLVESGGGLVQAGGSLRLSCAASGSTFYSYAMGWYRQAPGKERELVASITRGGSTNYADSVKGRFTISRDNAKNTVYLQMNSLKPEDTAVYYCITRGNARMDYWGQGTQVTVSS
polyreactivity (PSR sort gate): high polyreactivity

QVQLVESGGGLVQAGGSLRLSCAASGSTFYSYTMGWYRQAPWKERELVATISWSGSSTYYADSVKGRFTISRDNAKNTVYLQMNSLKPEDTAVYYCAAEWDESYSYRRYRHYDYWGQGTQVTVSS
polyreactivity (PSR sort gate): low polyreactivity

QVQLVESGGGLVQAGGSLRLSCAASGSTFYSYVMGGYRQAPGKERELVAAISKRGTSTYYADSVKGRFTISRDNAKYTVYLQMNSLKPEDNAVYYCAARPIVGVYPDIYDYWGHGTQVTVSS
polyreactivity (PSR sort gate): low polyreactivity

QVQLVESGGGLVQAGGSLRLSCAASGSTFYTNAMGWYRQAPGKEREFVAAISGRGSNTYYADSVKGRFTISRDNAKNTVYLQMNSLKPEDTAVYYCAADFRSEHAEDYWGQGTQVTVSS
polyreactivity (PSR sort gate): high polyreactivity

QVQLVESGGGLVQAGGSLRLSCAASGSTFYTNAMGWYRQAPWKERELVAAISNAVSTYYADSVKGRFTISRDNAKNTVYLQMKSLKPEDTAVYYCAADPIGLSSLWFRYSVSDVDYWGQGTQVTVSS
polyreactivity (PSR sort gate): low polyreactivity

QVQLVESGGGLVQAGGSLRLSCAASGSTFYTNPMGWYRQAPGKEREFVAAISGSGSSTYADSVKGRFTISRDNAKNTVYLQMNSLKPEDTAVYYCAADWFILRTDYYWGQGTQVTVSS
polyreactivity (PSR sort gate): low polyreactivity

QVQLVESGGGLVQAGGSLRLSCAASGSTFYTYAMGWYRQAPGKERELVAAISGSGGRTYYADSVKGRFTISRDNAKNTVYLQMNSLKPEDTAVYYCAAYSYRKHATGSRDMDYWGQGTQVTVSS
polyreactivity (PSR sort gate): high polyreactivity

QVQLVESGGGLVQAGGSLRLSCAASGSTFYVYAMGWYRQAPGKERELVAAINFNGGGTYYADSVKGRFTISRDNAKNTVYLQMNSLKPEDTAVYYCYYLYNYWGQGTQVTVSS
polyreactivity (PSR sort gate): low polyreactivity

QVQLVESGGGLVQAGGSLRLSCAASGSTFYVYAMGWYRQAPGKERELVAAISKRGGTTYYADSVKGRFTISRDNAKNTVYLQMNSLKPEDTAVYYCAADVRSPSAGYQGGYWGQGTQVTVSS
polyreactivity (PSR sort gate): high polyreactivity

QVQLVESGGGLVQAGGSLRLSCAASGSTFYVYAMGWYRQAPGKERELVAAITTGGSTYYADSVKGRFTISRDNAKNTVYLQMNSLKPEDTAVYYCAADDPDPYDVPSYDYWGQGTQVTVSS
polyreactivity (PSR sort gate): low polyreactivity

QVQLVESGGGLVQAGGSLRLSCAASGSTFYWYAMGWYRQAPGKERELVAVITVRGGSTYYADSVKGRFTISRDNAKNTVYLQMNSLKPEDTAVYYCAAEPTSYLYKYWYDYWGEGTQVTVSS
polyreactivity (PSR sort gate): low polyreactivity

QVQLVESGGGLVQAGGSLRLSCAASGSTFYWYAMGWYRQAPGKERELVDDITFSSGGTYYADSVKGRFTISRDNAKNTVYLQMNSLKPEVTADYYCATEYSLWYTRDWQRYEYWGQGTQVTVSS
polyreactivity (PSR sort gate): high polyreactivity

QVQLVESGGGLVQAGGSLRLSCAASGSTFYWYTMGWYRQAPGKERELVARISSSGSTNYADSVKGRFTISRDNAKNTVYFQMNSLKPEDTAVYYCNKDWIYRGYDYWGQGTQVTVSS
polyreactivity (PSR sort gate): high polyreactivity

QVQLVESGGGLVQAGGSLRLSCAASGSTFYWYTMGWYRQAPGKERELVATINYSGGSTYYADSVKGRFTISRDNAKNTVYLQMNSLKPEDTAVYYCNKQVYVGWGSDYWGQGTQVTVSS
polyreactivity (PSR sort gate): low polyreactivity

QVQLVESGGGLVQAGGSLRLSCAASGSTFYYGMGWYRQAPGKERELVAAISSRGGTTYYADSVKGRFTISRDNAKNTVYLQMNSLKPEDTAVDYCAAPVPYYVPRRNEGDYWGQGTQVTVSS
polyreactivity (PSR sort gate): low polyreactivity

QVQLVESGGGLVQAGGSLRLSCAASGSTFYYNAMGGYRQAPGKEWELVATITSAGRTNYADSVKGRFTISRVNAKNTDYLQMNSLKPEDTAVYYCNARYRLSRYNYWGQGTQVTVSS
polyreactivity (PSR sort gate): low polyreactivity

QVQLVESGGGLVQAGGSLRLSCAASGSTFYYNAMGWYRQAPGKERELVAAISGSGGSTYYADSVKGRFTISRDNAKNTVYLQMNSLKPEDTAVYYCAALYGPGREYDYWGQGTQVTVSS
polyreactivity (PSR sort gate): low polyreactivity

QVQLVESGGGLVQAGGSLRLSCAASGSTFYYNAMGWYRQAPGKERELVADISWRGGITYYADSVKGRFTISRDNAKNTVYLQMNSLKPEDTAVYYCNADAESFDDGYWGQGTQVTVSS
polyreactivity (PSR sort gate): low polyreactivity

QVQLVESGGGLVQAGGSLRLSCAASGSTFYYNDMGWYRQAPGKERELVAAIRTSGSTNYADSVKGRFTISRDYAKNNVYLQMNSLKPEDTAVYYCNAVVRHWFPGWYGRGDDYWGQGTQVTVSS
polyreactivity (PSR sort gate): low polyreactivity

QVQLVESGGGLVQAGGSLRLSCAASGSTFYYNTMGWYRQAPGKERELVAAISRSGGSTYYADSVKGRFTISRDNAKNTVYLQMNSLKPEDTAVYYCAARIIGARNLYGYWGQGTQVTVSS
polyreactivity (PSR sort gate): high polyreactivity

QVQLVESGGGLVQAGGSLRLSCAASGSTFYYYAMGRYRQAPGKEMELVATISRGGSTNYADSVKGRFTISRDNAKNTVYLQMNSLKPEDTAVYYCAIGYLRPYGSHRESTPYDYWGEGTQVTVSS
polyreactivity (PSR sort gate): low polyreactivity

QVQLVESGGGLVQAGGSLRLSCAASGSTFYYYAMGWYRQAPGKEREFVASISSRGTSTYYADSVKGPFTISRDNAKNTVYLQMNSLKPEDTAVYYCAARGWGPTRAYDYWGQGTQVTVSS
polyreactivity (PSR sort gate): high polyreactivity

QVQLVESGGGLVQAGGSLRLSCAASGSTFYYYAMGWYRQAPGKERELVAAIDWSGESTYYADSVKGRFTISRDNAKNTVYLQMNSLKPEDTAVYYCAAVRSAQRWRRYYYWGQGTQVTVSS
polyreactivity (PSR sort gate): low polyreactivity

QVQLVESGGGLVQAGGSLRLSCAASGSTFYYYAMGWYRQAPGKERELVAAINYNGGSTHYADSVKGRFTISRDNAKNTVYLQMISLKPEDTAVYYCAAKYRLSYTHGYWGQGSQVTVSS
polyreactivity (PSR sort gate): low polyreactivity

QVQLVESGGGLVQAGGSLRLSCAASGSTFYYYAMGWYRQAPGKERELVAAISGGGNTKYADSVKGRFTISRDNAKNTVYLQMNSLKPEDTAVYYCAARLAYWYYYAWRGPYYYWGQGPQVTVSS
polyreactivity (PSR sort gate): high polyreactivity

QVQLVESGGGLVQAGGSLRLSCAASGSTFYYYAMGWYRQAPGKERELVAAISRGGSTYYADSVKGRFTISRDNAKNTVYLQMNSLKPEDTAVYYCAVDARPYRQIYLYEYWGQGTQVTVSS
polyreactivity (PSR sort gate): low polyreactivity

QVQLVESGGGLVQAGGSLRLSCAASGSTFYYYAMGWYRQAPGKERELVAAITLRGTSTYYADSVKGRFTISRDNAKNTVYLQMNRLKPEDTAVYYCAVETYYSIFDIYDYWGQGTQVTVSS
polyreactivity (PSR sort gate): low polyreactivity
